Assay results as given in patent US20240209070A1, “COTH3 BINDING AGENTS AND USES THEREOF” (priority 2021, published 2024).

Assays:
[1] = target: Lichtheimia corymbifera (Lichtheimia corymbifera); assay: flow cytometry on fixed Lichtheimia corymbifera spores; blank 'Hu 2nd Only' median 461.38, mean 517.80
[2] = target: Rhizopus delemar (Rhizopus delemar); assay: flow cytometry on fixed Rhizopus delemar spores; blank 'Hu 2nd Only' median 565.83, mean 592.76
[3] = target: Mucor circinelloides (Mucor circinelloides); assay: flow cytometry on fixed Mucor circinelloides spores; blank 'Hu 2nd Only' median 990.21, mean 1062.19
[4] = target: Cunninghamella bertholletiae (Cunninghamella bertholletiae); assay: flow cytometry on fixed Cunninghamella bertholletiae spores; blank 'Hu 2nd Only' median 241.78, mean 250.81
[5] = target: Rhizomucor (Rhizomucor (species not given)); assay: flow cytometry on fixed Rhizomucor spores; blank 'Hu 2nd Only' median 257.20, mean 272.52

Rhizopus delemar (Rhizopus delemar), sequence (I1CFE1 18-579): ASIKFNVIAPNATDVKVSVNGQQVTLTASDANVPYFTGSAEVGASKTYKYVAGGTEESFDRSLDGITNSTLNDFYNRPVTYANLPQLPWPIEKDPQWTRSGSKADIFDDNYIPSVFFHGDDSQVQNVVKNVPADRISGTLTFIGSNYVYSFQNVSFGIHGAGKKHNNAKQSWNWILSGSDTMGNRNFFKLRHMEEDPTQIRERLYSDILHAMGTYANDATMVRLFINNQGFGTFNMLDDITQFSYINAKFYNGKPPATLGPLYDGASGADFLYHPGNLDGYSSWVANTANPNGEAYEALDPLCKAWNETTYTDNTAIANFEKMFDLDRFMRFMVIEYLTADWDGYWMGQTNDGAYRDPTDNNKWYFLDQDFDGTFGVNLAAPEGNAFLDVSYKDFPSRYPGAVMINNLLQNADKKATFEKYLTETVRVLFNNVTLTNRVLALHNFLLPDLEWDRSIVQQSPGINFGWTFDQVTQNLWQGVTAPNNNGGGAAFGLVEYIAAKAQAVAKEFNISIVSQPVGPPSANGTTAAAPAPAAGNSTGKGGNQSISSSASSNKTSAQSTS

Substance: Hu Isotype IgG (antibody)
- Mean: FITC-A [1]: 2830
- Median: FITC-A [1]: 1170
- Mean: FITC-A [2]: 1210
- Median: FITC-A [2]: 1010
- Mean: FITC-A [3]: 2020
- Median: FITC-A [3]: 1820
- Mean: FITC-A [4]: 1070
- Median: FITC-A [4]: 833
- Mean: FITC-A [5]: 1110
- Median: FITC-A [5]: 843
